Assay results as given in patent US20180238915A1 (published 2018).

T1: negatively modulated GCSF receptor (GCSFR(-)) (UniProt Q99062 25-621, limits assumed, modified by S-HyNic and conjugated through HyNic-4FB bonds to a 64-base DNA oligonucleotide (SEQ. ID 2, 5' C12 amino modifier); number and sites not stated)
T1 construct: Receptor-oligonucleotide conjugate; Receptor known only by catalogue number; also called nGCSFR; nTPR
T1 sequence (looked up): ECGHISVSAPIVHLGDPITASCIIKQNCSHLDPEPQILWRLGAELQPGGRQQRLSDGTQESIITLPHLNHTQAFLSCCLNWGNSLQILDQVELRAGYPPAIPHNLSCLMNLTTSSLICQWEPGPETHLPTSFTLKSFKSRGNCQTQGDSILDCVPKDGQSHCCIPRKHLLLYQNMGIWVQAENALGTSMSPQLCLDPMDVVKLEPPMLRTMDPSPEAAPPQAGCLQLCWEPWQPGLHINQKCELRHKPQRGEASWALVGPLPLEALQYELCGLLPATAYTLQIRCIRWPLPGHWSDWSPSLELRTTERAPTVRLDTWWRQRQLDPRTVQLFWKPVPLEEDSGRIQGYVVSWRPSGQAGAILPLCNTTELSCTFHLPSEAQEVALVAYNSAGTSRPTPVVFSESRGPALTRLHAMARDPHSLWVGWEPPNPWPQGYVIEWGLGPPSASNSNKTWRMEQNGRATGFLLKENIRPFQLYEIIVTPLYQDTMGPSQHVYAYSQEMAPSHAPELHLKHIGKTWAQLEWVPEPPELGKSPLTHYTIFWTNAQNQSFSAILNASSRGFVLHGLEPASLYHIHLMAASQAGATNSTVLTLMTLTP

T2: positively modulated granulocyte colony stimulating factor receptor (pGCSFR) (UniProt Q99062 25-621, limits assumed, C-terminal Lys carries 5-FAM; C-terminal amide (CONH2); N-terminus modified by 6-(BOC-hydrazino)nicotinic acid for conjugation to the receptor; modified by Sulfo-S-4FB and conjugated through a …)
T2 construct: Receptor-peptide conjugate; Receptor known only by catalogue number
T2 sequence: T1 sequence (looked up)
T2 sequence (peptide): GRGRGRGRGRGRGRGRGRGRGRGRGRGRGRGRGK

B1: labeled G-CSF (Alexa Fluor 488) (ligand, UniProt P09919-2 31-204, looked up)
chain: TPLGPASSLPQSFLLKCLEQVRKIQGDGAALQEKLCATYKLCHPEELVLLGHSLGIPWAPLSSCPSQALQLAGCLSQLHSGLFLYQGLLQALEGISPELGPTLDTLQLDVADFATTIWQQMEELGMAPALQPTQGAMPAFASAFQRRAGGVLVASHLQSFLEVSYRVLRHLAQP
modifications: Alexa Fluor 488 label (carboxylic acid succinimidyl ester); sites not stated
B2: granulocyte colony stimulating factor (G-CSF) (ligand, UniProt P09919-2 31-204, looked up)
chain: B1 chain
notes: Unlabeled Sandoz G-CSF

Tests used:
[1] = molecular target: T1, negatively modulated GCSF receptor …; assay: off-rate by negative MCM and electrokinetic concentration; 100 nM labeled drug, 1 uM negatively modulated receptor
Procedure: The dissociation rate of drug-receptor binding, koff was measured by monitoring the evolution of the peak of complex and fitting it with the aforementioned derived equation.

[2] = molecular target: T2, positively modulated granulocyte colony …; assay: direct assay by positive MCM and electrokinetic concentration; 1 nM pGCSFR, 0-81 nM G-CSF, 30 min incubation, 30 V 15 min
Excerpt: The dose-response curves were plotted by fitting the experimental results with the classic second-order binding model.

Binder	dissociative half-life [1]	Kd [2]
B1	5.5 h	–
B2	–	~0.7 nM
